Assay results as given in US20200354692A1.

Target: NAD(P)+-dependent methanol dehydrogenase from Bacillus methanolicus MGA3 (Genbank EIJ77596.1, GI 387585261) (Bacillus methanolicus MGA3) (UniProt P31005)
Assay: cell-based or functional assay

activator protein from Bacillus methanolicus MGA3 (locus tag MGA3_09170, GI 387591061, Accession EIJ83380) (from UniProt Q8KP10 1-185) (enzyme)
ratio of "act" to methanol dehydrogenase (in vitro activation test with 5 M methanol, 2 mM NAD, 10 uM methanol dehydrogenase 2315A, pH 7.4) (ratio act : methanol dehydrogenase): 10
